From US20040096901A1
“And” between values parts separate entries of the source, which are not always exact repeats. Equal entries are not always repeated.

Target: CD45 antigen (leukocyte common antigen), human, on cells (human) (UniProt P08575)
Test: cell-based or functional assay

B1: chimeric anti-CD45RO/RB mAb "candidate mAb" (antibody, human IgG1, kappa, V domains shown)
VH: EVQLQQSGPELVKPGASVKMSCKASGYTFTNYIIHWVKQEPGQGLEWIGYFNPYNHGTKYNEKFKGRATLTADKSSNTAYMDLSSLTSEDSAIYYCARSGPYAWFDTWGQGTTVTVSS
VL: DILLTQSPAILSVSPGERVSFSCRASQNIGTSIQWYQQRTNGSPRLLIRSSSESISGIPSRFSGSGSGTDFTLSINSVESEDIADYYCQQSNTWPFTFGSGTKLEIKR
% of Inhibition of primary MLR (responder #211 CD4, stimulator #219 CD3), 10 ug/ml mAb: 63.5% | % of Inhibition of primary MLR (responder #220 CD4, stimulator #219 CD3 depl.), 10 ug/ml mAb: 63.1% | % of Inhibition of primary MLR (responder #227 CD4, stimulator #220 CD3 depl.), 10 ug/ml mAb: 66% | % of Inhibition of primary MLR (responder #229 CD4, stimulator #219 CD3 depl.), 10 ug/ml mAb: 50.8% | IC50 for the inhibition of primary MLR (cellular activity IC50): 0.87 nM and 0.13 µg/ml
